The results in this text go back to publication PMC12346298, “Structures of MmpL complexes reveal the assembly and mechanism of this family of transporters” (Science Advances, 2025).

Assay [1] has as its target mycobacterial membrane protein large 5 (MmpL5) transporter, M. smegmatis (M. smegmatis) (UniProt A0QS80). As to the kind of experiment: cryo-EM structure; particle class 3 (dipartite trimeric AcpM-MmpL5 complex) from the same LMNG-solubilized crude membrane sample; Build and Retrieve processing; 3.37 Å.
The target is the same in assay [2]. Description: cryo-EM structure; particle class 2 (tripartite trimeric AcpM-MmpL5-MmpS5 complex) from the same LMNG-solubilized crude membrane sample; Build and Retrieve processing; 2.81 Å.
In assay [3] the target is T1, mycobacterial membrane protein large 5 (MmpL5) transporter, M. smegmatis (M. smegmatis, UniProt A0QS80 1-967).
T1 construct: MmpL5 of Mycobacterium smegmatis, gene MSMEG_1382 cloned into pBUN250; 12 TM helices, periplasmic subdomains PD1-PD3 (PD3 = residues 499-684); Seen as a monomer (in 2D arrays) and as a homotrimer in different particle classes of one sample; Residues 493-702 are not modelled in 9MX0, residues 499-655 not in 9MW0; also called MSMEG_1382; source: M. smegmatis MC2-155, coexpressed with MmpS5 from …
T1 sequence (looked up): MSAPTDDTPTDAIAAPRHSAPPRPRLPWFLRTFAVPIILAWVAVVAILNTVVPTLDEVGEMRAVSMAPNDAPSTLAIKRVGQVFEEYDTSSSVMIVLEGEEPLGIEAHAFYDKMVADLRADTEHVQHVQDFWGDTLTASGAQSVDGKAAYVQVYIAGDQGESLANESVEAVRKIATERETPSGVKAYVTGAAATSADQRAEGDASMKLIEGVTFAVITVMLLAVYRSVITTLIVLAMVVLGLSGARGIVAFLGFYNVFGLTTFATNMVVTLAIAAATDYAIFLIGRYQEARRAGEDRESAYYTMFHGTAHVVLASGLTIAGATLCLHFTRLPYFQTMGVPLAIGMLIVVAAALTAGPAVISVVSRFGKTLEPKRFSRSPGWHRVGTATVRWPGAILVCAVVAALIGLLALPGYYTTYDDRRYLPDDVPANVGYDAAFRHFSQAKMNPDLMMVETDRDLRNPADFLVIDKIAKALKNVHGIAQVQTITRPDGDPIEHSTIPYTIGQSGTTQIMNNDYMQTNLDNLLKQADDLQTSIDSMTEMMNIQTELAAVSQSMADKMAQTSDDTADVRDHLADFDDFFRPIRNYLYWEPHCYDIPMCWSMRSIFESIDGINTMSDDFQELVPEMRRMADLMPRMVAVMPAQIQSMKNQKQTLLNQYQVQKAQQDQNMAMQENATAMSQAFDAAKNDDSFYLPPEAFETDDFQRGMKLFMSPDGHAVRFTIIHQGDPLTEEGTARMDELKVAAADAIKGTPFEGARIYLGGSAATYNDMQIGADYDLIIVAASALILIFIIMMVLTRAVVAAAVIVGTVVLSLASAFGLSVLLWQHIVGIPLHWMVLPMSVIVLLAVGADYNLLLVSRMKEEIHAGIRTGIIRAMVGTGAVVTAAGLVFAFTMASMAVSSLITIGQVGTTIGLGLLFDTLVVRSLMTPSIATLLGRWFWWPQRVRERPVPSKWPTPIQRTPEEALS
The description is as above. As to conditions: partners not purified.

Assay [4] deals with T1, mycobacterial membrane protein large 5 …. As to the kind of experiment: cryo-EM structure; particle class 1 (2D arrays of monomeric AcpM-MmpL5 units) from LMNG-solubilized crude M. smegmatis membranes enriched by sucrose cushion; Build and Retrieve processing; 3.35 Å. As to conditions: partners not purified.

Usually stoichiometry N stands for a count of units in the complex or per binding partner. For “mycobacterial membrane protein large 5 (MmpL5) transporter, M. smegmatis (from UniProt A0QS80 1-967) (natural protein)”, the stoichiometry N in assay [1] and in assay [2] was 3 each time.
In the case of “MmpS5 adaptor protein, M. smegmatis (natural protein)”, the stoichiometry N (MmpS5:MmpL5 (3:3)) in assay [2] is 1.

B1: meromycolate extension acyl carrier protein M (AcpM), M. smegmatis (natural protein, UniProt A0R0B3 1-99, looked up)
chain: MAATQEEIIAGLAEIIEEVTGIEPSEVTPEKSFVDDLDIDSLSMVEIAVQTEDKYGVKIPDEDLAGLRTVGDVVAYIQKLEEENPEAAAALREKFAADQ
notes: AcpM, cytosolic meromycolate extension acyl carrier protein of Mycobacterium smegmatis, not overexpressed; identified in the cryo-EM maps and by proteomics; four-helix bundle, 82 C-alpha atoms compared; Came with MmpL5 from the host cells; source: endogenous, M. smegmatis MC2-155; detergent-solubilized (LMNG) crude membranes, enriched by sucrose cushion centrifugation
B1: the “stoichiometry N” value was 1 AcpM:MmpL5 (3:3) in assay [3] and 1 AcpM:MmpL5 (1:1) in assay [4].
